The series in a line: protein stability index of a GFP-peptide fusion (GPS, HEK-293T) (PSI 1-6); higher = more stable.
Where [1] appears, read: treatment: DMSO, c terminus: a fixed tail appended.
Where [2] appears, read: treatment: MLN4924 1 uM, 8 h, c terminus: a fixed tail appended.

± gives the standard deviation.
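Further: 24-mer peptide tiles fused after GFP, lentivirally expressed, FACS-sorted into six equal bins by GFP/DsRed ratio, decoded by Illumina sequencing, PSI is the read-weighted mean bin number.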

With EQQRKLETYLQNHFAEEERSKYDY [TENT5C], the protein stability index is 4.35 ± 0.16 under setting [1] and 4.47 ± 0.099 under setting [2].

In the case of PLLCPGCQGQPQGKAVVSHSKGHK [ELOA2], the protein stability index amounted to 4.12 ± 0.43 under setting [1] and 4.53 ± 0.42 under setting [2].

With KLRQMRVEKFIYENHPDVFSDSSM [MYOZ1], the protein stability index runs as follows: under setting [1], 2.43 ± 0.17; under setting [2], 2.64 ± 0.41. The like results for EADVNGLRRVLDELTLARTDLEMQ [KRT16] were, in that order, 4 ± 0.35 and 4.07 ± 0.094.

Regarding SSGRSCRNERSIQEKLQVLMAEGL [SMG5], the protein stability index under setting [1] turned out to be 2.64 ± 0.39 and the protein stability index under setting [2] is 2.88 ± 0.12. The matching figures for LLVINESIESIKWMIEEKATITSR [LURAP1L]: 2.38 ± 0.24 and 2.51 ± 0.3. Sequence GAGHFEVVKLLVSHGANVNHTTVT [FEM1B] registered a protein stability index under setting [1] of 2.23 ± 0.51 and a protein stability index under setting [2] of 2.26 ± 0.2.

ASGKLRKKKKKQKNKKSSTGEASE [TCF25] gave a protein stability index under setting [1] of 4.9 ± 0.23. On to YMYYFQYLSKTYCVDATRETNRLG [KMT5A], for which the protein stability index by setting is: under setting [1], 2.67 ± 0.47; under setting [2], 2.81 ± 0.66. In the case of QGWMNLLNMAKKSVDIVSSHWDLN [PLD5], the protein stability index reads like this: under setting [1], 2.9 ± 0.45; under setting [2], 3.46 ± 0.69.

As to TLNSIWNVEDHINPKLPNISLDVL [POMT2], the protein stability index came out at 2.31 ± 0.092 under setting [1] and 2.48 ± 0.17 under setting [2]. For ISLNMCLLGALVLLGLGVLLFSGG [PBXIP1], the protein stability index turned out to be 2.03 ± 0.24 under setting [1] and 2.15 ± 0.2 under setting [2]. The matching figures for FFAFEHSEEYQQAQHKFLVAVESM [TCF25]: 3.59 ± 0.35 and 3.56 ± 0.4. The like results for SQAPDGRRKSEAGSGAASSSGEDK [CDC25B] were, in that order, 5.65 ± 0.18 and 5.58 ± 0.35. YILLVGYPPFWDEDQHKLYQQIKA [CAMK2B]: the protein stability index by setting is: under setting [1], 2.49 ± 0.57; under setting [2], 2.82 ± 0.56. On to SNASEDTRRLRLAHVGMELQLKQE [SCARA5], for which the protein stability index by setting is: under setting [1], 4.29 ± 0.33; under setting [2], 4.4 ± 0.29. Regarding RCGYRLVRRQRSADEQLHCAGKAK [ESR2], the protein stability index amounted to 3.69 ± 0.36 under setting [1] and 3.91 ± 0.26 under setting [2]. The like results for QKNFGLYVQEKRDGLKRRQQLEEE [RAD54B] were, in that order, 4.7 ± 0.32 and 4.66 ± 0.2.

As for PAVEACENRRKVLYQRAPRNIHRH [TCF25], the protein stability index was 3.88 ± 0.23 under setting [1] and 3.81 ± 0.15 under setting [2]. For AEEEEEEEEEVDLACTPTDVRDVD [CCND1], the protein stability index is, setting by setting: under setting [1], 5.53 ± 0.31; under setting [2], 5.41 ± 0.34.

Consider IELNPPEKMALDPYTELRKQPLRK [EFHC1], for which the protein stability index runs as follows: under setting [1], 4.08 ± 0.2; under setting [2], 4.21 ± 0.33. The matching figures for AATRGGSHLQAAAQTPPRPGPPSA [SCNN1D]: 4.93 ± 0.21 and 4.84 ± 0.1. The like results for AGRIDREELCAQSARCVVSFNILV [PCDHGA10] were, in that order, 2.45 ± 1.1 and 2.37 ± 0.61. The matching figures for LSMNWAIVADILLYVVIPTRRSTA [SPNS1]: 2.63 ± 0.62 and 3.01 ± 0.77. As to LPFLAHALYVQAPTVTIEGFLQAL [TRIP13], the protein stability index by setting is: under setting [1], 2.93 ± 0.66; under setting [2], 2.76 ± 0.51. The like results for GLSGGALSPLRAASDPLLSSVSPA [TFE3] were, in that order, 3.91 ± 0.32 and 3.91 ± 0.099. The like results for VTQPCGDCGTIQENWVCLSCYQVY [HDAC6] were, in that order, 2.89 ± 0.57 and 2.96 ± 0.7. The like results for LRSKLCSLYENDCIFDKFECVWNG [PPP2R2B] were, in that order, 2.5 ± 0.34 and 2.42 ± 0.39. For the sequence IFSLATEWVISTGHDKCVSWMCTR [WDFY1], the protein stability index is 2.94 ± 0.47 under setting [1] and 2.85 ± 0.66 under setting [2]. In turn, LRREKPSEEMVKMVLSRPCHPDDQ [INTS3] returned a protein stability index under setting [1] of 4.61 ± 0.12 and a protein stability index under setting [2] of 4.69 ± 0.15.

In turn, ETIEGAPPLWAASAAGHLKVVQSL [FEM1C] registered a protein stability index under setting [1] of 3.11 ± 0.2 and a protein stability index under setting [2] of 3.04 ± 0.46. The matching figures for EILLDFVYTETVHVTVENVQELLP [KLHL12]: 2.31 ± 0.59 and 2.4 ± 1.3. The like results for QLQPTSIEKEVFPIMAKEGQLYAM [GMPPB] were, in that order, 3.1 ± 0.27 and 2.96 ± 0.5. Consider FLSENATVAAETRAVIAWMEKIPF [CPXM2], for which the protein stability index by setting is: under setting [1], 2.04 ± 0.12; under setting [2], 2.28 ± 0.5.

TCSECGKGFIQKGNLNIHQRTHTG [ZNF649] gave a protein stability index under setting [1] of 3.24 ± 0.2 and a protein stability index under setting [2] of 3.26 ± 0.25.

On to IHGTLHLERLAYLHARLRELLCEL [PRAME], for which the protein stability index was determined as 2.04 ± 0.3 under setting [1] and 2.06 ± 0.31 under setting [2].

Turning to RDNAELENLIRERSQQQEPLLCPS [KRT33B], the protein stability index came to 4.98 ± 0.23 under setting [1] and 4.87 ± 0.21 under setting [2]. The matching figures for ADLLLLTDLKTLCCEFLEGCIAAE [GAN]: 2.15 ± 0.42 and 2.16 ± 0.58. For the sequence KAVVFFVFYLWSAIEIFRYSFYML [HACD3], the protein stability index was 3.46 ± 0.28 under setting [1] and 3.08 ± 0.32 under setting [2].

For GSMEQVSSHFLEQTLDKKLMSDLR [INTS4], the protein stability index reads like this: under setting [1], 3.72 ± 0.2; under setting [2], 3.73 ± 0.6. The matching figures for TNEWEKRLSTSPVRLAARQEDAPM [EPB41L3]: 4.83 ± 0.16 and 4.51 ± 0.44. The like results for SLDEFRQTWKLFSSHMNIDITDDC [PPEF2] were, in that order, 2.49 ± 0.3 and 2.75 ± 0.21.

For ILILEGGYNLTSISESMAACTRSL [HDAC6], the protein stability index was found to be 2.97 ± 0.61 under setting [1] and 2.63 ± 0.8 under setting [2]. The matching figures for LPAVKVFLDWLRTNPDLIIVCAQS [SMG5]: 2.27 ± 0.47 and 2.41 ± 0.45. Turning to MIMLKDRRMTVVGRLEGLIQPDDL [FAF2], the protein stability index reads like this: under setting [1], 2.34 ± 0.25; under setting [2], 2.56 ± 0.29. Turning to LHIPMYFFLAILSCSEICYTFIIV [OR10K2], the protein stability index under setting [1] amounted to 3.65 ± 0.48 and the protein stability index under setting [2] was found to be 3.18 ± 0.38. The like results for TEKTTTVLSESSGPSNTSHSSSRD [C2CD2L] were, in that order, 5.42 ± 0.15 and 5.31 ± 0.25.

In the case of GGDGSGCSKQSGSFRKFRYGYNNV [ADAMTS4], the protein stability index was 3.59 ± 0.3 under setting [1] and 3.389 ± 0.008 under setting [2]. The like results for QEAEEPKARVLRSKSLCHDEIENL [CDC25B] were, in that order, 5.37 ± 0.089 and 5.57 ± 0.23.

Take KYSVYIYVYFHTKLTSQNSKRVS [R3HDM1]: the protein stability index was found to be 2.55 ± 0.71 (treatment: DMSO, c terminus: native) and 2.24 ± 0.15 (treatment: MLN4924 1 uM, 8 h, c terminus: native). For ASKGCQLGKTEQGFENMDFFTLDL [TRIM63], the protein stability index is, setting by setting: under setting [1], 3.22 ± 0.19; under setting [2], 3.22 ± 0.31. The matching figures for WAEAECQRQQLPVTFGNKQKVLGK [BTBD1]: 4.42 ± 0.45 and 4.31 ± 0.42. Turning to FDHLQNRLIATKNPEEIRGGGLLK [TENT5C], the protein stability index under setting [1] stood at 3.73 ± 0.26 and the protein stability index under setting [2] came to 4.09 ± 0.36. Take LNVTNYCHLAHELRLSCMERKKVQ [DCAF4]: the protein stability index by setting is: under setting [1], 2.61 ± 0.19; under setting [2], 2.36 ± 0.21. The matching figures for FRFTYYTILDIFRFALRFIRPDPR [FAF2]: 2.56 ± 0.067 and 2.47 ± 0.33. In the case of KGKLMVCYETLPRGQCLLYNWEEE [SPAG8], the protein stability index by setting is: under setting [1], 2.55 ± 0.32; under setting [2], 2.7 ± 0.34. The like results for SNWFVWVTQMNHIPMHIDHDRNMD [FADS1] were, in that order, 2.09 ± 0.45 and 2.19 ± 0.13. The matching figures for YDKNIIHKTAGKRYVYRFVCDLQS [ETS1]: 2.11 ± 0.17 and 2.14 ± 0.17. For GIVEAMVVCRQLGLGFASNAFQET [LOXL2], the protein stability index under setting [2] is 2.393 ± 0.002. DRRKKIARMGFNASSMLRKSQLGF [DCAF4]: the protein stability index amounted to 2.67 ± 0.34 under setting [1] and 2.84 ± 0.13 under setting [2].

As for IKPENILITKQGIIKICDFGFAQI [CDKL4], the protein stability index under setting [1] was 2.18 ± 0.29 and the protein stability index under setting [2] turned out to be 2.49 ± 1.

In the case of FFIRTSDSFDKFDFCEPSFVTGNC [PCMTD2], the protein stability index turned out to be 2.52 ± 0.33 under setting [1] and 2.42 ± 0.26 under setting [2]. In the case of DSGVGASLTRSNRHRLRWHSFQSS [DLC1], the protein stability index under setting [1] stood at 3.03 ± 0.13 and the protein stability index under setting [2] was found to be 3.04 ± 0.21.

On to CESDIWALGCVMYTMLLGRPPFET [PLK2], for which the protein stability index by setting is: under setting [1], 3.72 ± 0.55; under setting [2], 3.59 ± 0.71. The matching figures for STGEAGTDGDHNVYPRPPEPREFS [ZC2HC1C]: 5.03 ± 0.19 and 5.03 ± 0.16. Turning to HRKAVHLRTRGRTRGWVQTLARMS [C6orf223], the protein stability index under setting [1] was determined as 2.57 ± 0.34 and the protein stability index under setting [2] turned out to be 2.49 ± 0.17. The like results for IVYATEKKQTKVEFPEARIFEETL [KCTD13] were, in that order, 3 ± 0.11 and 2.85 ± 0.35.

AMVLELLGPSLEDLFDLCDRTFTL [CSNK1G1] came in with a protein stability index under setting [1] of 2.52 ± 1.4 and a protein stability index under setting [2] of 1.53 ± 0.14. Regarding RSLGPRAPSLRRHVLIHNTLQQLQ [SERTAD3], the protein stability index runs as follows: under setting [1], 2.64 ± 0.25; under setting [2], 3.05 ± 0.19. As for GHPYRGASQFLASASSSTTCCEST [IRX6], the protein stability index was found to be 4.24 ± 0.19 under setting [1] and 4.3 ± 0.22 under setting [2]. RDEHRARAMKIPFTNDKIINLPVE [NFE2L1]: the protein stability index reads like this: under setting [1], 4.12 ± 0.36; under setting [2], 3.95 ± 0.14.

For SRLLGSASPSSSVRLGSFRSPRAG [PRPH], the protein stability index runs as follows: under setting [1], 4.08 ± 0.19; under setting [2], 3.96 ± 0.18.

YTGYCWCVTPNGRPISGTAVAHKT [SMOC2]: the protein stability index was found to be 2.73 ± 0.55 under setting [1] and 2.51 ± 0.13 under setting [2].

For the origin of these results see the supplement of paper PMC10567573.
